{"source": "paper PMC6049852", "about": "“Comprehensive investigation of a dye-decolorizing peroxidase and a manganese peroxidase from Irpex lacteus F17, a lignin-degrading basidiomycete” (AMB Express, 2018)", "proteins": {"B1": {"name": "Il-DyP4 (Irpex lacteus) (protein)", "chain": "SAGNDSLPFENIQGDILVGMKKDKEKFVFFHINNATAFKSVLKTYAPANITSVATIIGPVANQPLAFVNLAFSHAGFGALNVTDDLQDTAFSDGQFKDSPNLGDDTSTWEEAFKGTNVDGVFLIGSNDESITAQYRDDLNAKFGDAWTIVYDLDSAARPGNEKGHEHFGYLDGISNPTIPGFGTPHPGQAVVDPGIIFTGRSKDPVMNRPSWALDGSFLVFRKLKQLVPEFNKYVLDNALQNQAGNLTVEEGAELLGSRMFGRWKSGAPIDLSPDFDDPALGNDIERNNNFNYSHPGSDLATDQTRCPFTAHIRKTNPRDLEGQGLFGDTFHAIRAGTPYGPEVTDYEASSNTTTIDRGLAFVEYQSVIGNGFRFQQQAWANNPRFPFSKGPSIQLGLDPVIGQGSPRETFGLDPRNASESFTVPQVIISNGGEYFFSPSITAIVEKFAA", "notes": "502 aa given, 52-aa signal peptide stated"}, "B2": {"name": "Il-MnP6 (Irpex lacteus) (protein)", "chain": "TKRVACPDGKNTATNAACCALFAIRDDIQENLFDGGQCGEEVHESFRLTFHDAIGIGSNGGGGADGSIAVFEAIETAFHANNGVDEIIDEQKPFIARHNITPGDFIQFAGAVGVSNCPGAPRLDFFLGRPNPVAPAPDKTVPEPFDSVTSILARFKDAGNFSPEEVVALLGSHTIAAADHVDPTIPGTPFDSTPEVFDTQVFLEVQLRGTLFPGTAGNQGEVQSPLRGEIRLQSDHDLARDQRTACEWQSFVNNQAKLQRNFKAAFKKLSILGHDERRLIDCSEVIPEPPNVKVKPATFPAGLSNKDVEQACRATPFPTLPTDPGPSTSVAPVPPS", "notes": "359 aa printed, predicted 23-aa signal peptide; short-type MnP"}}, "experiment_in_all_cases": "purified protein", "key": {"[1]": {"substrate": "COc1ccccc1O", "settings": "pH 4, 45 °C, error = 95% confidence limits"}, "[2]": {"substrate": "COc1cccc(OC)c1O", "type": "biochemical, Irpex lacteus", "settings": "error = 95% confidence limits"}, "[3]": {"substrate": "COc1ccc(CO)cc1OC", "type": "biochemical, Irpex lacteus", "settings": "0.1 mM H2O2, 0.1 M sodium tartrate, pH 3.5, 45 °C, error = 95% confidence limits"}, "[4]": {"substrate": "Nc1c(N=Nc2ccc(S(=O)(=O)CCOS(=O)(=O)O)cc2)c(S(=O)(=O)O)cc2cc(S(=O)(=O)O)c(N=Nc3ccc(S(=O)(=O)CCOS(=O)(=O)O)cc3)c(O)c12", "type": "biochemical, Irpex lacteus", "settings": "error = 95% confidence limits"}, "[5]": {"substrate": "Nc1c(S(=O)(=O)O)cc(Nc2cccc(S(=O)(=O)CCOS(=O)(=O)O)c2)c2c1C(=O)c1ccccc1C2=O", "type": "biochemical, Irpex lacteus", "settings": "error = 95% confidence limits"}, "[6]": {"substrate": "CCn1c(=NN=c2sc3cc(S(=O)(=O)O)ccc3n2CC)sc2cc(S(=O)(=O)O)ccc21", "type": "biochemical, Irpex lacteus", "settings": "error = 95% confidence limits"}, "[7]": {"settings": "0.1 mM H2O2, 0.1 M sodium tartrate"}, "[8]": {"settings": "0.1 mM H2O2, 0.1 M sodium tartrate, pH 4, 35 °C"}, "[9]": {"settings": "0.1 mM H2O2, 0.1 M sodium tartrate, pH 4.5, 35 °C"}, "[10]": {"settings": "0.1 mM H2O2, 0.1 M sodium tartrate, pH 3.5, 35 °C"}, "[11]": {"settings": "0.1 mM H2O2, 1 mM Mn2+, 0.1 M sodium tartrate"}, "[12]": {"settings": "0.1 mM H2O2, 1 mM Mn2+, 0.1 M sodium tartrate, pH 4.5, 55 °C"}, "[13]": {"settings": "0.1 mM H2O2, 1 mM Mn2+, 0.1 M sodium tartrate, pH 3, 35 °C"}, "[14]": {"settings": "0.1 mM H2O2, 1 mM Mn2+, 0.1 M sodium tartrate, pH 3.5, 45 °C"}}}
{"protein": "B1", "values": [{"measurement": "Km", "setting": "[1]; [7]", "value": "24 ± 7.5", "unit": "µM"}, {"measurement": "kcat", "setting": "[1]; [7]", "value": "413 ± 34", "unit": "s⁻¹"}, {"measurement": "kcat/Km", "setting": "[1]; [7]", "value": "(1.7 ± 0.1) × 10^7 s^-1M^-1"}, {"measurement": "Km", "setting": "[2]; [8]", "value": "58 ± 3", "unit": "µM"}, {"measurement": "kcat", "setting": "[2]; [8]", "value": "4896 ± 131", "unit": "s⁻¹"}, {"measurement": "kcat/Km", "setting": "[2]; [8]", "value": "(8.4 ± 0.2) × 10^7 s^-1M^-1"}, {"measurement": "Km", "setting": "[3]", "value": "(2.1 ± 0.98) × 10^4 μM"}, {"measurement": "kcat", "setting": "[3]", "value": "108 ± 47", "unit": "s⁻¹"}, {"measurement": "kcat/Km", "setting": "[3]", "value": "(5.2 ± 2.3) × 10^3 s^-1M^-1"}, {"measurement": "Km", "setting": "[4]; [8]", "value": "159 ± 61", "unit": "µM"}, {"measurement": "kcat", "setting": "[4]; [8]", "value": "267 ± 96", "unit": "s⁻¹"}, {"measurement": "kcat/Km", "setting": "[4]; [8]", "value": "(1.7 ± 0.6) × 10^6 s^-1M^-1"}, {"measurement": "Km", "setting": "[5]; [9]", "value": "133 ± 34", "unit": "µM"}, {"measurement": "kcat", "setting": "[5]; [9]", "value": "5345 ± 921", "unit": "s⁻¹"}, {"measurement": "kcat/Km", "setting": "[5]; [9]", "value": "(4.0 ± 0.7) × 10^7 s^-1M^-1"}, {"measurement": "Km", "setting": "[6]; [10]", "value": "62 ± 11", "unit": "µM"}, {"measurement": "kcat", "setting": "[6]; [10]", "value": "8356 ± 747", "unit": "s⁻¹"}, {"measurement": "kcat/Km", "setting": "[6]; [10]", "value": "(1.3 ± 0.1) × 10^8 s^-1M^-1"}]}
{"protein": "B2", "values": [{"measurement": "Km", "setting": "[1]; [11]", "value": "2.6 ± 0.6", "unit": "µM"}, {"measurement": "kcat", "setting": "[1]; [11]", "value": "184 ± 7", "unit": "s⁻¹"}, {"measurement": "kcat/Km", "setting": "[1]; [11]", "value": "(7.1 ± 0.3) × 10^7 s^-1M^-1"}, {"measurement": "Km", "setting": "[2]; [12]", "value": "53 ± 8.6", "unit": "µM"}, {"measurement": "kcat", "setting": "[2]; [12]", "value": "989 ± 100", "unit": "s⁻¹"}, {"measurement": "kcat/Km", "setting": "[2]; [12]", "value": "(1.9 ± 0.2) × 10^7 s^-1M^-1"}, {"measurement": "Km", "setting": "[4]; [13]", "value": "4.4 ± 0.7", "unit": "µM"}, {"measurement": "kcat", "setting": "[4]; [13]", "value": "0.06 ± 0.003", "unit": "s⁻¹"}, {"measurement": "kcat/Km", "setting": "[4]; [13]", "value": "(1.5 ± 0.07) × 10^4 s^-1M^-1"}, {"measurement": "Km", "setting": "[5]; [13]", "value": "81 ± 39.5", "unit": "µM"}, {"measurement": "kcat", "setting": "[5]; [13]", "value": "7.3 ± 2.6", "unit": "s⁻¹"}, {"measurement": "kcat/Km", "setting": "[5]; [13]", "value": "(9.0 ± 3.2) × 10^4 s^-1M^-1"}, {"measurement": "Km", "setting": "[6]; [14]", "value": "83 ± 6.5", "unit": "µM"}, {"measurement": "kcat", "setting": "[6]; [14]", "value": "245 ± 7", "unit": "s⁻¹"}, {"measurement": "kcat/Km", "setting": "[6]; [14]", "value": "(3.0 ± 0.09) × 10^6 s^-1M^-1"}]}
